Assays:
[1] = test system: patients with Type 2 diabetes mellitus (T2DM); test: Treatment-emergent adverse events incl. serious, fatal, leading to discontinuation (Example 2)
[2] = test system: patients with T2DM; test: Major cardiovascular events adjudicated by CAC (Example 3)
[3] = PT ≥3% in any treatment group, Safety population
[4] = SOC, PT ≥ 3% in any treatment group, Safety population
[5] = on-treatment period, Safety population

## Gly(A21)-Arg(B31)-Arg(B32)-human insulin [Insulin Glargine]
[1]; Example 2
  Diarrhea, % of patients: 4.3%
  Nausea, % of patients: 3.6%
  Nausea, number of patients: 17 patients
  Overall incidence of gastrointestinal adverse events: 12.6%
  Patients reporting treatment-emergent adverse events, %: 48.6%
  Patients reporting treatment-emergent adverse events, number: 227 patients
  Patients who withdrew from treatment due to TEAEs: 1.9%
  Patients with at least 1 TEAE leading to death: 3 patients
  Serious TEAEs, % of patients: 4.1%
  Serious TEAEs, number of patients: 19 patients
  Upper respiratory tract infection, % of patients: 4.9%
  Withdrawals caused by gastrointestinal adverse events: 0.2%
[1]; [3]
  TEAE: Back pain: 10 (2.1%) n (%)
  TEAE: Diarrhoea: 20 (4.3%) n (%)
  TEAE: Dizziness: 7 (1.5%) n (%)
  TEAE: Headache: 15 (3.2%) n (%)
  TEAE: Influenza: 11 (2.4%) n (%)
  TEAE: Nasopharyngitis: 25 (5.4%) n (%)
  TEAE: Nausea: 17 (3.6%) n (%)
  TEAE: Upper respiratory tract infection: 23 (4.9%) n (%)
  TEAE: Vomiting: 7 (1.5%) n (%)
[1]; PT, Safety population
  Serious TEAE: Acquired phimosis: 0 n (%)
  Serious TEAE: Acute kidney injury: 0 n (%)
  Serious TEAE: Acute myocardial infarction: 1 (0.2%) n (%)
  Serious TEAE: Acute pulmonary oedema: 1 (0.2%) n (%)
  Serious TEAE: Anaphylactic reaction: 0 n (%)
  Serious TEAE: Angioedema: 0 n (%)
  Serious TEAE: Bladder prolapse: 1 (0.2%) n (%)
  Serious TEAE: Bronchitis: 1 (0.2%) n (%)
  Serious TEAE: Calculus urinary: 1 (0.2%) n (%)
  Serious TEAE: Cardiac failure acute: 1 (0.2%) n (%)
  Serious TEAE: Cardiac failure chronic: 1 (0.2%) n (%)
  Serious TEAE: Cardiac failure congestive: 1 (0.2%) n (%)
  Serious TEAE: Cervical dysplasia: 0 n (%)
  Serious TEAE: Cholecystitis chronic: 0 n (%)
  Serious TEAE: Chronic obstructive pulmonary disease: 1 (0.2%) n (%)
  Serious TEAE: Comminuted fracture: 1 (0.2%) n (%)
  Serious TEAE: Coronary artery disease: 1 (0.2%) n (%)
  Serious TEAE: Costochondritis: 1 (0.2%) n (%)
  Serious TEAE: Death: 0 n (%)
  Serious TEAE: Diabetes mellitus inadequate control: 0 n (%)
  Serious TEAE: Dyspnoea: 1 (0.2%) n (%)
  Serious TEAE: Electrocardiogram ST-T segment abnormal: 0 n (%)
  Serious TEAE: Erysipelas: 0 n (%)
  Serious TEAE: Febrile infection: 0 n (%)
  Serious TEAE: Hydronephrosis: 1 (0.2%) n (%)
  Serious TEAE: Hypertension: 1 (0.2%) n (%)
  Serious TEAE: Lacunar infarction: 1 (0.2%) n (%)
  Serious TEAE: Lipase increased: 1 (0.2%) n (%)
  Serious TEAE: Lung cancer metastatic: 0 n (%)
  Serious TEAE: Lung neoplasm malignant: 0 n (%)
  Serious TEAE: Meningitis staphylococcal: 0 n (%)
  Serious TEAE: Metabolic acidosis: 0 n (%)
  Serious TEAE: Metastases to liver: 0 n (%)
  Serious TEAE: Metrorrhagia: 0 n (%)
  Serious TEAE: Myocardial infarction: 1 (0.2%) n (%)
  Serious TEAE: Non-cardiac chest pain: 1 (0.2%) n (%)
  Serious TEAE: Oesophagitis: 0 n (%)
  Serious TEAE: Palpitations: 0 n (%)
  Serious TEAE: Pancreatic carcinoma: 1 (0.2%) n (%)
  Serious TEAE: Pancytopenia: 1 (0.2%) n (%)
  Serious TEAE: Pneumonia: 1 (0.2%) n (%)
  Serious TEAE: Prostate cancer recurrent: 1 (0.2%) n (%)
  Serious TEAE: Pyelonephritis acute: 1 (0.2%) n (%)
  Serious TEAE: Radiculopathy: 0 n (%)
  Serious TEAE: Renal colic: 0 n (%)
  Serious TEAE: Respiratory failure: 0 n (%)
  Serious TEAE: Spinal osteoarthritis: 0 n (%)
  Serious TEAE: Squamous cell carcinoma of skin: 0 n (%)
  Serious TEAE: Squamous cell carcinoma of the oral cavity: 1 (0.2%) n (%)
  Serious TEAE: Tendon rupture: 0 n (%)
  Serious TEAE: Thyroid adenoma: 1 (0.2%) n (%)
  Serious TEAE: Toxicity to various agents: 0 n (%)
  Serious TEAE: Transient ischaemic attack: 0 n (%)
  Serious TEAE: Urinary tract infection: 0 n (%)
  Serious TEAE: Urosepsis: 1 (0.2%) n (%)
  Serious TEAE: Urticaria: 0 n (%)
  TEAE leading to death: Acute myocardial infarction: 1 (0.2%) n (%)
  TEAE leading to death: Acute pulmonary oedema: 1 (0.2%) n (%)
  TEAE leading to death: Cardiac failure acute: 1 (0.2%) n (%)
  TEAE leading to death: Cardiac failure congestive: 0 n (%)
  TEAE leading to death: Death: 0 n (%)
  TEAE leading to death: Lung cancer metastatic: 0 n (%)
  TEAE leading to death: Squamous cell carcinoma of the oral cavity: 1 (0.2%) n (%)
  TEAE leading to permanent treatment discontinuation: Abdominal distension: 0 n (%)
  TEAE leading to permanent treatment discontinuation: Abdominal pain: 0 n (%)
  TEAE leading to permanent treatment discontinuation: Acute myocardial infarction: 1 (0.2%) n (%)
  TEAE leading to permanent treatment discontinuation: Acute pulmonary oedema: 1 (0.2%) n (%)
  TEAE leading to permanent treatment discontinuation: Alanine aminotransferase increased: 0 n (%)
  TEAE leading to permanent treatment discontinuation: Anaphylactic reaction: 0 n (%)
  TEAE leading to permanent treatment discontinuation: Atrial fibrillation: 0 n (%)
  TEAE leading to permanent treatment discontinuation: Back pain: 0 n (%)
  TEAE leading to permanent treatment discontinuation: Bacteraemia: 0 n (%)
  TEAE leading to permanent treatment discontinuation: Blood creatinine increased: 0 n (%)
  TEAE leading to permanent treatment discontinuation: Bronchitis: 1 (0.2%) n (%)
  TEAE leading to permanent treatment discontinuation: Cardiac failure acute: 1 (0.2%) n (%)
  TEAE leading to permanent treatment discontinuation: Cardiac failure congestive: 0 n (%)
  TEAE leading to permanent treatment discontinuation: Colitis: 0 n (%)
  TEAE leading to permanent treatment discontinuation: Comminuted fracture: 1 (0.2%) n (%)
  TEAE leading to permanent treatment discontinuation: Cough: 1 (0.2%) n (%)
  TEAE leading to permanent treatment discontinuation: Death: 0 n (%)
  TEAE leading to permanent treatment discontinuation: Decreased appetite: 0 n (%)
  TEAE leading to permanent treatment discontinuation: Depression: 1 (0.2%) n (%)
  TEAE leading to permanent treatment discontinuation: Diabetic mononeuropathy: 0 n (%)
  TEAE leading to permanent treatment discontinuation: Diarrhoea: 0 n (%)
  TEAE leading to permanent treatment discontinuation: Drug hypersensitivity: 1 (0.2%) n (%)
  TEAE leading to permanent treatment discontinuation: Dyspepsia: 1 (0.2%) n (%)
  TEAE leading to permanent treatment discontinuation: Extradural abscess: 0 n (%)
  TEAE leading to permanent treatment discontinuation: Fatigue: 1 (0.2%) n (%)
  TEAE leading to permanent treatment discontinuation: Gastritis erosive: 0 n (%)
  TEAE leading to permanent treatment discontinuation: Headache: 1 (0.2%) n (%)
  TEAE leading to permanent treatment discontinuation: Injection site erythema: 0 n (%)
  TEAE leading to permanent treatment discontinuation: Insomnia: 0 n (%)
  TEAE leading to permanent treatment discontinuation: Lipase increased: 1 (0.2%) n (%)
  TEAE leading to permanent treatment discontinuation: Lung cancer metastatic: 0 n (%)
  TEAE leading to permanent treatment discontinuation: Lung neoplasm malignant: 0 n (%)
  TEAE leading to permanent treatment discontinuation: Meningitis staphylococcal: 0 n (%)
  TEAE leading to permanent treatment discontinuation: Myocardial infarction: 1 (0.2%) n (%)
  TEAE leading to permanent treatment discontinuation: Nausea: 0 n (%)
  TEAE leading to permanent treatment discontinuation: Pancreatic carcinoma: 1 (0.2%) n (%)
  TEAE leading to permanent treatment discontinuation: Rash: 1 (0.2%) n (%)
  TEAE leading to permanent treatment discontinuation: Skin burning sensation: 0 n (%)
  TEAE leading to permanent treatment discontinuation: Urinary tract infection: 0 n (%)
  TEAE leading to permanent treatment discontinuation: Urticaria: 0 n (%)
  TEAE leading to permanent treatment discontinuation: Vomiting: 0 n (%)
[1]; [4]
  TEAE: Gastrointestinal disorders: 59 (12.6%) n (%)
  TEAE: Infections and infestations: 126 (27.0%) n (%)
  TEAE: Musculoskeletal and connective tissue disorders: 41 (8.8%) n (%)
  TEAE: Nervous system disorders: 30 (6.4%) n (%)
[1]; SOC, Safety population
  Serious TEAE: Blood and lymphatic system disorders: 1 (0.2%) n (%)
  Serious TEAE: Cardiac disorders: 6 (1.3%) n (%)
  Serious TEAE: Gastrointestinal disorders: 0 n (%)
  Serious TEAE: General disorders and administration site conditions: 1 (0.2%) n (%)
  Serious TEAE: Hepatobiliary disorders: 0 n (%)
  Serious TEAE: Immune system disorders: 0 n (%)
  Serious TEAE: Infections and infestations: 2 (0.4%) n (%)
  Serious TEAE: Injury, poisoning and procedural complications: 1 (0.2%) n (%)
  Serious TEAE: Investigations: 1 (0.2%) n (%)
  Serious TEAE: Metabolism and nutrition disorders: 0 n (%)
  Serious TEAE: Musculoskeletal and connective tissue disorders: 1 (0.2%) n (%)
  Serious TEAE: Neoplasms benign, malignant and unspecified (incl cysts and polyps): 4 (0.9%) n (%)
  Serious TEAE: Nervous system disorders: 1 (0.2%) n (%)
  Serious TEAE: Renal and urinary disorders: 2 (0.4%) n (%)
  Serious TEAE: Reproductive system and breast disorders: 0 n (%)
  Serious TEAE: Respiratory, thoracic and mediastinal disorders: 3 (0.6%) n (%)
  Serious TEAE: Skin and subcutaneous tissue disorders: 0 n (%)
  Serious TEAE: Vascular disorders: 1 (0.2%) n (%)
  TEAE leading to death: Cardiac disorders: 2 (0.4%) n (%)
  TEAE leading to death: General disorders and administration site conditions: 0 n (%)
  TEAE leading to death: Neoplasms benign, malignant and unspecified (incl cysts and polyps): 1 (0.2%) n (%)
  TEAE leading to death: Respiratory, thoracic and mediastinal disorders: 1 (0.2%) n (%)
  TEAE leading to permanent treatment discontinuation: Cardiac disorders: 3 (0.6%) n (%)
  TEAE leading to permanent treatment discontinuation: Gastrointestinal disorders: 1 (0.2%) n (%)
  TEAE leading to permanent treatment discontinuation: General disorders and administration site conditions: 1 (0.2%) n (%)
  TEAE leading to permanent treatment discontinuation: Immune system disorders: 1 (0.2%) n (%)
  TEAE leading to permanent treatment discontinuation: Infections and infestations: 1 (0.2%) n (%)
  TEAE leading to permanent treatment discontinuation: Injury, poisoning and procedural complications: 1 (0.2%) n (%)
  TEAE leading to permanent treatment discontinuation: Investigations: 1 (0.2%) n (%)
  TEAE leading to permanent treatment discontinuation: Metabolism and nutrition disorders: 0 n (%)
  TEAE leading to permanent treatment discontinuation: Musculoskeletal and connective tissue disorders: 0 n (%)
  TEAE leading to permanent treatment discontinuation: Neoplasms benign, malignant and unspecified (incl cysts and polyps): 1 (0.2%) n (%)
  TEAE leading to permanent treatment discontinuation: Nervous system disorders: 1 (0.2%) n (%)
  TEAE leading to permanent treatment discontinuation: Psychiatric disorders: 1 (0.2%) n (%)
  TEAE leading to permanent treatment discontinuation: Respiratory, thoracic and mediastinal disorders: 2 (0.4%) n (%)
  TEAE leading to permanent treatment discontinuation: Skin and subcutaneous tissue disorders: 1 (0.2%) n (%)
[1]; Safety population
  Patients with any TEAE: 227 (48.6%) n (%)
  Patients with any TEAE leading to death: 3 (0.6%) n (%)
  Patients with any TEAE leading to permanent treatment discontinuation: 9 (1.9%) n (%)
  Patients with any serious TEAE: 19 (4.1%) n (%)
[2]; Example 3
  Events adjudicated as major cardiovascular events by CAC, % of patients: 1.1%
  Events adjudicated as major cardiovascular events by CAC, number of patients: 4 patients
[2]; [5]
  % of patients with events adjudicated as major cardiovascular events by CAC: Any: 1.1%
  % of patients with events adjudicated as major cardiovascular events by CAC: Cardiovascular death: 0.3%
  % of patients with events adjudicated as major cardiovascular events by CAC: Coronary revascularization procedure: 0.8%
  % of patients with events adjudicated as major cardiovascular events by CAC: Hospitalization for heart failure: 0.3%
  Number of patients with events adjudicated as major cardiovascular events by CAC: Any: 4
  Number of patients with events adjudicated as major cardiovascular events by CAC: Cardiovascular death: 1
  Number of patients with events adjudicated as major cardiovascular events by CAC: Coronary revascularization procedure: 3
  Number of patients with events adjudicated as major cardiovascular events by CAC: Hospitalization for heart failure: 1
  Number of patients with events adjudicated as major cardiovascular events by CAC: Hospitalization for unstable angina: 0
  Number of patients with events adjudicated as major cardiovascular events by CAC: Non-fatal myocardial infarction: 0
  Number of patients with events adjudicated as major cardiovascular events by CAC: Non-fatal stroke: 0
